We go through 20 sequences from the DeepSol protein solubility set.

The nature of the data set: soluble on expression in E. coli; label from the status in PepcDB or PDB records.
As to “MGSDKIHHHHHHLSGQQDDVEDGMDQDTLTRIAEALERMAPVPQSTPDFSAASGFVWHVEPDRLEPVPEINRVELDLLVGIDRSRDTLLENTRRFAAGHAANNALLWGARGMGKSSLVKAIHGALVTDHPELKLVELQREDLPSVARLLNHLRGAPCRFILFCDDLSFSHDDQHYKSLKAVLDGGIEGRPENVVFYATSNRRHLMPRDMIENERSSAINPSEAVEEKVSLSDRFGLWLGFHPCNQDAYLAMIEGYCAAYGVTVDPERLRAEAIEWQATRGARSGRVAWQFFTDLAGREGVALR”, the “soluble on expression in E. coli” value is given as “not soluble”.

“GPGSMSSKAALLAVLAGSGQEHLVDDYDALSPSEQTTLATQILSYTNAQWKHMNVILRDSLRLLNLSNAAAGTGGGDAATAAPNITPPPADTIINVPALLAKRPSELAAIRAAGMRVVASGEGAVLLMAGGSGTRLGMTIPKGMVECDKLVSGRSLFAYHCQRIRKMERMAAAAAASLSQPSAVAAAGAAPVPPGAGRGTMPLLVTTSDQNDTATRQFFHDHDFFGLLPNQVFFSRQSSLPCYDEATGRVLMQARGSICLAPGGNAGVYESLAKASATTSGSQSVLAQIEARGVRYVQIVSVDNILARVGDPYFFGVAASYQAEVVLKTVPKVSAAEKVGVVAQVDGEWAVVEYTEIGDRRSAETDPATGELAFNCGSIASHCCSLDFLALAATYMETSTFYHAARKTIPTINGPAPAIKLEAFIFDVFRYAKDVPSRAERAKKAPLPDALQILQVDRSMEFAPIKNADGAAADTPTTAAQLLLDLHTRWVTEAIEAAPGTYAVASTSTSAMYTALERATALQRLRDGQCCWEISPLVSYEGEGLAAYVGQLIHRSATGSGVLGLEEATAGTANM”: the “soluble on expression in E. coli” value is reported as “soluble”.

“MAAHSFPLLRLPPKNLASVLRQVEIIEQIGLSLLSNKTKEYIRKFCDFKGFELSVWLHPYAVELELFKNGEGATHCSFRDGRACEHNEYPDGFTFDASQFFDMKSCLKHLLYILNPSKIAFLFYIQSNEVSDESQFQMTVDCLKGVKILKFSAKCIPQMNHIVRLVNAFPQTNRLSLVKNSNQPFQLSTLRQILHRKIQKLNLVIDITLNELLLNNSATSDFYSERLRGKDINLFLKHWAAGLKPELEYISFQISAVNFVESTILAGIPH”: the “soluble on expression in E. coli” value is recorded as “not soluble”.

Turning to “MKPTKARLRNHVITLKNSVEKEIRAKKTKAIRAHIESEWLKIDPEFEKLHRYFSSLRIRQNVKNELVDLLEENSLEIWSFYRDTDARDFETYKKGFLEKLKYNSIKGLAKVEAVYDQEIQEVRETYNAIIANVERVPAKQGVAYLEELGINVDVFKEEEAQLPMIAVDKSKLRLPSETADSK”, the “soluble on expression in E. coli” value is given as “not soluble”.

For the sequence “MSEEAEAGPSPKVNGENGNGTNTFDDLYVDDKMRRMIVDLQRQWLTDYHDSREKSLVALTEKLHQEFMEDQERVRRDLLVQFKIELDQTKEELEKKHAENLKEEIEKLSEKHQRELAVAKKKQWCWQCNSEAIYHCCWNTAYCSVECQQGHWQIHRKFCRRKKSNGGAPGPVQPIAEPTQSQQ”, the “soluble on expression in E. coli” value is recorded as “soluble”.

Regarding “MNYHTATITCQTTRPIDIIDITADVRSALEESGLQQGTVTLLSRHTTACLNINEREERLMQDMTTWLKRFIPKDGDWLHNIETIDGRDNAHSHLLGLFMNSSETIPFSEGQLMLGKWQSIFFIELDGPRPKREVLVHIQGELEHHHHHH”, the “soluble on expression in E. coli” value was “soluble”.

Consider “QPKPEVPQCVADWIEECKEEDLTLKGLFSNSDMPAKIFDWIFGSDENCRLMAEAWINGYTVEKEKLYTVDLPNGQPLVRGINTLYFSQNLATENVKLTESEIRKDFEWAWQFAEEVTE”, for which the “soluble on expression in E. coli” value is reported as “not soluble”.

Regarding “MGFHLRGNNDFAFKRLYINLPQNSQMRAQLRRLIDNGSDTVVVSDKQDADAFLDVLSENRVKTISSLTPQGVVREYRITYRFSFQLRDAHDNLLIPPSEITLFRDLSYNETQVLAKDYEEAALYRDMQGDIVNQLVRRLASVRLPSLEHHHHHH”, the “soluble on expression in E. coli” value is “soluble”.

Take “MSVEPTSVDPSPDKSAPANASGRADASARPSTGESARPSGGETPEVLRPHAEVTFAAELAALAAQDDRPRPVRWRLSPWAVATYLLGGTLPDGTVITPKYVGPRRIVEVAVTTLATDRALLLLGVPGTAKTWVSEHLAAAVSGDSTLLVQGTAGTPEEAIRYGWNYAQLLAHGPSRDALVPSPVMRAMADGMTARVEELTRVPADVQDTLITILSEKTLPIPELGQEVQAVRGFNLIATANDRDRGVNELSSALRRRFNTVVLPLPESADAEVDIVSRRVDQIGRSLDLPAVPDGVDEIRRVVTVFRELRDGVTTDGRTKLKSPSGTLSTAEAISVVTNGLALAAHFGDGVLRASDVAAGILGAVVRDPAADRVIWQEYLEAVVRERDGWMDFYRACREVSALEHHHHHH”: the “soluble on expression in E. coli” value is “soluble”.

Consider “GPPTRRSDFRVLVSGLPPSGSWQDLKDHMREAGDVCYADVQKDGMGMVEYLRKEDMEYALRKLDDTKFRSHEGETSYIRVYPERS”, for which the “soluble on expression in E. coli” value is “soluble”.

For “MKQLWFAMSLVAASLFFSANASADPASGALLQQMNIASQSLNYELSFVSITKQGVESLRYRHARLDGRPLAQLLQLDGPRREVVQRGNEISYFEPGLEPFTLNGDYIVDSLPSLIYTDFKRLAPYYDFISVGRTRIADRLCEVIRVVARDGTRYSYIVWMDMDTKLPMRVDLLDRDGETLEQFRVIAFTVSQDIGSNMQALAKANLPPLLSVPGGEKTKFNWSPSWVPQGFSEVSSSRRPLPTMDNLPIESRLYSDGLFSFSVNVNRATQNSSDQMLRTGRRTVYSSVRDNAEITIVGELPPQTAKRIADSIKFRAVQ”, the “soluble on expression in E. coli” value is “not soluble”.

As for “MGSDKIHHHHHHAAENLPIQNELFSEYFKKLNPTNYNTKMNRELYIFFKQMFNIDIVKDNIDNANFPTFEEVLGLLDLAEQRKEAFRNFGLENLNNRSDSIRFLRQYLILLMAEAIHNTPRTDNKYHKLLVENLLENDLLLDTTFISANYDIHIDNTVTGLRDKNDLPIMLDYGVEFTNFKEELNWRKPKEPLIKLYKIHGSLNWLYCPICNSVTLTPHEGGVMKLIENSSETKCLECGELTEPIIVPPTYFKNMSNIFLSNVWNETEKTLRDTDLLIFCGYSFPEADMHIKYMLKRVQTNRKKPPLKIMVFNNHSQKQRITLKKEEGRYKRFLGEDVIFTDNSFQDFSVNPLRFIKNI”, the “soluble on expression in E. coli” value is “not soluble”.

Consider “MSLSDYAPGMTGGPTGFEGAERFQYNNTMSEGRAIEGIKALQAAGNAPAKISMLLTDGAIGQITKPFPEGGPSAKEVWERETGIEIDIVGAPAEDIFKKVMQDVTTGGGTFDIYTGPWNSTGDLVSSGGAVNCSDFVAKYQPDWADPERGTPTPEMEKLLYTYAGDYYSFSLDGDFQTWFYLKGLYEDPRVQDAFLSETGVALKTPDTWEEVDRISKFFTGKDFGNGPMYGNGNLMSPFWGLATFYARFASMDFPNYHFFDEDGNPNLNSDLGIQCAEEHVRSFEWCPPDALTFTWAEAYATMWNLQIPHTAIYTNLVKFGDGYNADGTPKSKATGMIGSHLPVGRRFGDQLNRRSVLYYHITAWISSQSQHPEAVYLFLQWLSSTRTYTWMAGNPGGYFDPMQQANFKEPLVASTYHPYAMETIPQTIARSVPSINFAGQTALDNALDEEIQAAITGQKSAREAMDAAQSKWERIIKRQKRNGIVDAIKASRATWPTIVDEGHHHHHH”, for which the “soluble on expression in E. coli” value is reported as “soluble”.

“MVKFIHCADLHLDSPFKSKSYLSPNIFEDVQKSAYESFKNIVDLALKQEVDFIIIAGDLFDSENRTLRAEVFLNEQFERLRKEQIFVYICHGNHDPLTSKITSQWPNNVSVFSNQVETYQAITKSGETIYIHGFSYQNDASYENKIDAYPSSQGQKGIHIGVLHGTYSKSSVKDRYTEFRLEDLNQRLYHYWALGHIHQREQLSDMPVINYPGNIQGRHFNELGEKGCLLVEGDHLKLTTQFYPTQFIKFEEATIETDHTSKQGLYDVIQSFKDKVRTEGKSFYRLNVRINSEDIIAPQDLIQLKEMITEFEENENQFVFIEDLNLQYVQNDEMPIVKEFSPELLDDASLFDSAMTDLYLNPRASKFLDDYNEFDKVELVNHAERLLKDEMRGEQNDN”: the “soluble on expression in E. coli” value was “not soluble”.

With “MNKRIVICADGTWNRPEKDLKVDFPTNVLRLARAISPIAADGKPQQVFYDWGVGSYYDEVIGGATGRGLHKNIMDGYRYIVQNYSPGDEIYLFGFSRGAYTVRCLCGLINNCGILKRPEARLIQQAFDHYKKSSAPFAPSGDKSVEFRHEHCHESREIKFVGVWDTVGAMGIPISFLGLFEDKDEFYDTKIGRNVRVARHALAIDEHRSDFEPTIWQLRDNMDMQQVWFAGAHSNVGGSYLPDKDGSLLSDNALAWMIAEAERFNLSLEPHLTAGLEHHHHHH”, the “soluble on expression in E. coli” value is on record as “not soluble”.

Turning to “MGSDKIHHHHHHMDSLDQCIVNACKNSWDKSYLAGTPNKDNCSGFVQSVAAELGVPMPRGNANAMVDGLEQSWTKLASGAEAAQKAAQGFLVIAGLKGRTYGHVAVVISGPLYRQKYPMCWCGSIAGAVGQSQGLKSVGQVWNRTDRDRLNYYVYSLASCSLPRAS”, the “soluble on expression in E. coli” value is “not soluble”.

“MGSSHHHHHHSSGLVPRGSHMAASTVAGELGLSITGLGVQYPPYSLGPDAIDILSKRYHPESPAMKKVLAINRYTGIDQRSSIGNPDHPLVNKPNPPTVKELHEVFMSDGVPLAVEASRKAMAEARLVPAQITHMVSTTCTDSANPGYDHYVAKELGLSDRLEKVLLHGIGCSGGLAALRTAANLCLGHTARGKPARILVLALEVSTTMVRSELESIDALQETRIGIALFSDCASAVILSNGIGEAPGKPAIYDLLGWENRVIPDSEHDLGFDVDPMGWKVVLSPRVPVLAKASLQPTYADLLSSLQDQLPSSYQKPADFDWAMHPGGATILSGAESAMGLTPEHMRASYDRYINHGNSSSATIFSVLNRLREKDMDALAPGGKVKEYVVGCAFGPGINVEMCMLKRRMNAPARTTTGLDTPPETDDSEGPGPGSSAGSDDGESIEGGEKEEKFINEALDNVELD”: the “soluble on expression in E. coli” value is “soluble”.

As to “MSLADIPYGTDYPDAPWIDRDGHVLIDDGGKPTQVHRGQARIAYRLAERYQDKLLHVAGIGWHSWDGRRWAADDRGEAKRAVLAELRQALSDSLNDKELRADVRKCESASGVAGVLDLAAALVPFAATVADLDSDPHLLNVANGTLDLHTLKLRPHAPADRITKICRGAYQSDTESPLWQAFLTRVLPDEGVRGFVQRLAGVGLLGTVREHVLAILIGVGANGKSVFDKAIRYALGDYACTAEPDLFMHRENAHPTGEMDLRGVRWVAVSESEKDRRLAESTIKRLTGGDTIRARKMRQDFVEFTPSHTPLLITNHLPRVPGDDTAIWRRIRVVPFEVVIPADEQDRELDARLQLEADSILSWAVAGWSDYQRIGLSQPDAVLAATSNYREDSDTIKRFIDDECVTSSPVLKATTTHLFEAWQRWRVQEGVPEISRKAFGQSLDTHGYPVTDKARDGRWRAGIAVRGADDFDEGHHHHHH”, the “soluble on expression in E. coli” value is “soluble”.

Regarding “MILGTPKADWLAEFPRLADLIALRPSEWFNPAIAPSAEALADVGLGAADVADASARLQRFAPLIARLFPETAASGGIIESDLVEVATFHDALRQHYAAELPGRLWLKRDSHLPISGSIKARGGIYEVLAHAERLALEHGLVGLDDDYSRLAEADCRAFFARHRIAVGSTGNLGLSIGIIGAALGFQASVHMSADARQWKKDKLRAHGVTVVEYASDYSVAVEQGRREAAGDPYTHFVDDENSRDLFLGYAVAAERLRGQLDAAGIRVDSEHPLFVHLPCGVGGGPGGVAFGLKLAFGDAVHCLFAEPTHSPCMFLGVYTGRHEQVSVQDFGIDNRTAADGLAVGRPSGFVGRAMQRLLDGYYTVDDDELFRLLALLERSQGIRLEPSALAGATGIARVTREPQGYRERMGLTSARLANATHLVWATGGGMVPETEMRAYLERGRSLL”, the “soluble on expression in E. coli” value is listed as “not soluble”.

With “MSLAIRVVCISDTHDLKVDIPRGDILIHAGDLTDGGTVSDIQKQLDWLKEQPHPIKVVVAGNHDSWFDQKSRPEEDARSGAKPDMDGLIYLESGLTVQKVKGRTVNIFGVPDIPEIGPKEFAFQYATDNHPWLSKVPPQTDILVTHCPPKHHLDLGLGDSNLLREVWRVKPRLHVFGHVHCAYGKESVFFDNFQQTYERIMSRPRRGPILDFIPNEAWLDEGHHHHHH”, the “soluble on expression in E. coli” value is on record as “not soluble”.
